Assay results taken from patent CN110606891A.

Biological target: 鼠CLDN18.2 (mCLDN18.2), claudin-18 isoform A2.1 [Mus musculus], NP_001181850.1 (mouse) (UniProt P56857)
Assay: cell ELISA on mCLDN18.2+ cells (Table 23), background

Sequence of UniProt P56857 (P56857 other isoform, or with tags, fused parts or gaps, form in doubt): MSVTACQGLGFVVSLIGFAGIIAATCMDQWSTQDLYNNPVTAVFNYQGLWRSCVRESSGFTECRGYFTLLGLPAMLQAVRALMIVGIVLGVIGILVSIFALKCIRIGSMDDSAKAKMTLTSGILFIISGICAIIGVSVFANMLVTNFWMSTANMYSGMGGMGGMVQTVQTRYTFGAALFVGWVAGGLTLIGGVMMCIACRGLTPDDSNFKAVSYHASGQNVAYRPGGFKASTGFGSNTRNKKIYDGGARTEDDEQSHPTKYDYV

Emax: 0.19
Substance: Neg IgG (和靶点没有结合的非特异性抗体) (antibody)
